Numbering of substitutions follows the chain as printed.
Columns and labels:
[1] = target: TAGT-12 (human); assay: BLI, Octet RED96, antigen-Fc on AHC sensor, Fab in solution
[2] = target: TAGT-12 (human); assay: BLI Octet RED96, antigen-Fc on AHC sensor, Fab analyte
[3] = target: TAGT-12 (human); assay: BLI (Octet RED96), antigen Fc-His on AHC sensor, Fab in solution
[4] = target: TAGT-8 (human); assay: BLI, Octet RED96, antigen-Fc on AHC sensor, Fab in solution
[5] = target: TAGT-8 (human); assay: BLI (Octet), antigen-Fc on AHC sensor
[6] = target: TAGT-8H (human); assay: BLI Octet RED96, antigen-Fc on AHC sensor, Fab analyte
[7] = target: TAGT-12 (human); assay: BLI (Octet), antigen-Fc on AHC sensor
[8] = target: TAGT-12 (human); assay: BLI (Octet RED96), antigen-Fc on AHC sensor, Fab in solution
[9] = target: TAGT-6 (human); assay: BLI (Octet), antigen-Fc on AHC sensor
[10] = target: TAGT-6 (human); assay: BLI Octet RED96, antigen-Fc on AHC sensor, Fab analyte
[11] = target: TAGT-6 (human); assay: BLI (Octet RED96), antigen-Fc on AHC sensor, Fab in solution
[12] = target: TAGT-8M (mouse); assay: BLI (Octet), antigen-Fc on AHC sensor
[13] = target: TAGT-8 (human); assay: BLI (Octet RED96), antigen Fc-His on AHC sensor, Fab in solution
[14] = target: TAGT-8M (mouse); assay: as above
[15] = target: TAGT-8M (mouse); assay: BLI (Octet RED96), antigen-Fc on AHC sensor, Fab in solution
[16] = target: TAGT-8H (human); assay: as above
[17] = target: TAGT-8 (human); assay: BLI Octet, antigen-Fc on AHC sensor, Fab analyte
[18] = target: TAGT-6 (human); assay: BLI Octet, antigen-Fc on AHC sensor, Fab analyte
[19] = target: TAGT-6 (human); assay: BLI (Octet RED96), antigen Fc-His on AHC sensor, Fab in solution
[20] = target: TAGT-8H (human); assay: BLI (Octet), antigen-Fc captured, Fab in solution

B1: Hit ID 6010 (Fab, V domains shown)
VH: EVQLVESGGGLVQPGGSLRLSCAASGYSISSGHYWNWIRQAPGKGLEWIGWINPNRGDTNYAQKFQGRVTISRDNSKNTLYLQLNSLRAEDTAVYYCARDYYGDFDYWGQGTLVTVSS
VL: DIQLTQSPSSLSASVGDRVTITCRASQSISSYLNWYQQKPGKAPKLLIYDASNLETGVPSRFSGSGSGTDFTLTISSLQPEDFATYYCQHHYGTPLTFGQGTKVEIKR
Work on B1 yielded a Kd [1] of 28.3 nM, a Kd [2] of 28.3 nM and a Kd [3] of 28.3 nM.

B2: Hit ID 4036 (Fab, V domains shown)
VH: EVQLVESGGGLVQPGGSLRLSCAASGFSLSTSGVGVGWIRQAPGKGLEWIGEIYHSGSTYYSPSLKSRVTISRDNSKNTLYLQLNSLRAEDTAVYYCARERYGSYYFDYWGQGTLVTVSS
VL: DIQLTQSPSSLSASVGDRVTITCRASQSVDFYGKSFLDWYQQKPGKAPKLLIYDASSLESGVPSRFSGSGSGTDFTLTISSLQPEDFATYYCQQYYRIPPTFGQGTKVEIKR
In the case of B2, the Kd [4] is reported as 3.13 nM, the Kd [5] is reported as 3.13 nM and the Kd [6] is reported as 3.13 nM.

B3: Hit ID 5115 (Fab, V domains shown)
VH: EVQLVESGGGLVQPGGSLRLSCAASGYSISSGHYWGWIRQAPGKGLEWIGEIYHSGSTYYSPSLKSRVTISRDNSKNTLYLQLNSLRAEDTAVYYCARESYYAFDYWGQGTLVTVSS
VL: B1 VL with I29V, N34A, D50A, N53T, E55Q, T56S, H90Q, H91Y, G93T
For B3, the Kd [7] was 11.6 nM and the Kd [8] was 11.6 nM.

B4: Hit ID 5404 (Fab, V domains shown)
VH: EVQLVESGGGLVQPGGSLRLSCAASGYSISSGYHWAWIRQAPGKGLEWIGEIYHSGSTYYSPSLKSRVTISRDNSKNTLYLQLNSLRAEDTAVYYCARSPYYYGVFDYWGQGTLVTVSS
VL: DIQLTQSPSSLSASVGDRVTITCSASSRVGSVYWYQQKPGKAPKLLIYDASNLETGVPSRFSGSGSGTDFTLTISSLQPEDFATYYCQQYTHDPVTFGQGTKVEIKR
Work on B4 yielded a Kd [9] of 3.3 nM, a Kd [10] of 3.3 nM and a Kd [11] of 3.3 nM.

B5: Hit ID 4027 (Fab, V domains shown)
VH: EVQLVESGGGLVQPGGSLRLSCAASGYSITSGHHWNWIRQAPGKGLEWIGWISPSSGGTKYAQKFQGRVTISRDNSKNTLYLQLNSLRAEDTAVYYCARGFDGFHYWGQGTLVTVSS
VL: DIQLTQSPSSLSASVGDRVTITCRASESVDFYGISFLPWYQQKPGKAPKLLIYDASNRATGIPSRFSGSGSGTDFTLTISSLQPEDFATYYCQQSYSWPWTFGQGTKVEIKR
B5 was tested, and the Kd [5] was 1.55 nM, the Kd [12] was 3.81 nM and the Kd [13] was 1.55 nM. It also gave a Kd [14] of 3.81 nM, a Kd [15] of 3.81 nM and a Kd [16] of 1.55 nM.

B6: Hit ID 7040 (Fab, V domains shown)
VH: EVQLVESGGGLVQPGGSLRLSCAASGYSISSGYYWNWIRQAPGKGLEWIGWISPSGGSTNYAQKFQGRVTISRDNSKNTLYLQLNSLRAEDTAVYYCARDLTAGGFDYWGQGTLVTVSS
VL: B1 VL with S28G, N34A, H90Q, H91Y, G93S
B6 showed a Kd [17] of 27.2 nM, a Kd [6] of 27.2 nM and a Kd [16] of 27.2 nM.

B7: Hit ID 7183 (Fab, V domains shown)
VH: EVQLVESGGGLVQPGGSLRLSCAASGYSISSGHYWNWIRQAPGKGLEWVSSISGYGDTTYYADSVKGRFTISRDNSKNTLYLQLNSLRAEDTAVYYCAREGSDTVLGDWFAYWGQGTLVTVSS
VL: B1 VL with L54R, E55A, V58I, H90Q, H91S, G93S, L96P
For B7, the Kd [18] was 14.8 nM, the Kd [19] was 14.8 nM and the Kd [11] was 14.8 nM.

B8: Hit ID 4034 (Fab, V domains shown)
VH: EVQLVESGGGLVQPGGSLRLSCAASGYSISSGHYWNWIRQAPGKGLEWVSSISGYGSTTYYADSVKGRFTISRDNSKNTLYLQLNSLRAEDTAVYYCARERYYGSTDYAFDYWGQGTLVTVSS
VL: DIQLTQSPSSLSASVGDRVTITCSASSRVSHVFWYQQKPGKAPKLLIYAASTLQSGVPSRFSGSGSGTDFTLTISSLQPEDFATYFCLQGTHFPWTFGQGTKVEIKR
B8 showed a Kd [17] of 4.27 nM, a Kd [13] of 4.27 nM and a Kd [20] of 4.27 nM.

B9: Hit ID 7097 (Fab, V domains shown)
VH: B7 VH with Y34H, N36D, S51Y, Y55A, T104A
VL: B1 VL with S28G, N34A, H90Q, H91Y, G93S
In the case of B9, the Kd [9] is reported as 24.3 nM, the Kd [10] is reported as 24.3 nM and the Kd [11] is reported as 24.3 nM.
